These results are taken from the DeepSol protein solubility set.

This data set in a line: soluble on expression in E. coli; label from the status in PepcDB or PDB records.
With “MVEVHACSPGCRHHLGGAGWGDAPLVRLGYNKEARAKKFPYLKALLERPLVFDGAMGTELQKRDLTPEDYGGEAYFGCPEVLNRTRPEVVREIHLAYLEAGAEVIETNTFGALRHVLAEYGLEEAAEELAFLGARIAREAADPHGAFVAGALGPGTKLVSLGQISWDALYRAYKEAARGLLKGGVDLILLETAQDILQVRCAVLAVREAMAEVGREVPLQVQVTFEATGTMLVGTDEQAALAALESLPVDVVGMNCATGPDLMDSKVRYFAEHSTRFVSCLPNAGLPRNEGGRVVYDLTPEELAKWHLKFVAEYGVNAVGGCCGTGPEHIRKVAEAVKGLAPKPRPESFPPQVASLYQAVSLKQEASLFLVGERLNATGSKRFREMLFARDLEGILALAREQVEEGAHALDLSVAWTGRDELEDLRWLLPHLATALTVPVMVDSTSPEAMELALKYLPGRVLLNSANLEDGLERFDRVASLAKAHGAALVVLAIDEKGMAKTREEKVRVALRMYERLTEHHGLRPEDLLFDLLTFPITQGDEESRPLAKETLLAMEELRERLPGVGFVLGVSNVSFGLKPRARRVLNSVFLDEARKRGLTAAIVDAGKILPISQIPEEAYALALDLIYDRRKEGFDPLLAFMAYFEAHKEDPGKREDAFLALPLLERLKRRVVEGRKQGLEADLEEALKAGHKPLDLINGPLLAGMKEVGDLFGAGKMQLPFVLQAAEVMKRAVAYLEPHMEKKGEGKGTLVLATVKGDVHDIGKNLVDIILSNNGYRVVNLGIKVPIEEILKAVEAHKPHAVGMSGLLVKSTLVMKENLEYMRDRGYTLPVILGGAALTRSYVEELRAIYPNVYYAEDAFEGLRLMEELTGHAPPELTRKAPARPKREAPKVAPRARPVGEAPAVPRPPFFGVRVEEGLDLATIAHYVNKLALYRGQWGYSRKGLSREAWQALVEREAEPVFQRLLKEAMAEGWLEPKVLYGFFPVAREGEELLVFSPETGEVLERFRFPRQKGGGLSLVDYFRPRFAAPLGDEADWMPKEAFRAGARDVLGVQLVTMGEAPSRKAQALFASGAYQDYLFVHGFSVEMTEALAEYWHKRMRQMWGIAHQDATEIQKLFQQGYQGARYSFGYPACPDLADQAKLDRLMGFHRVGVRLTENFQLEPEHATSALVVHHPEARYFSVD”, the “soluble on expression in E. coli” value is listed as “soluble”. With “MMMDLNIRRVVLDVDKGLNRPTLVELAAAIEKVQGVEAVNIIVTEMDMETMGTNITVEGTNINYDELIETIENTGSAIHSVDEIAVGKRLIENVRR” the entry was “not soluble”. Regarding “MAGDPMGNSSTKGSADSKGDKLHVVTTFYPMYEFTKQIVKDKGDVDLLIPSSVEPHDWEPTPKDIANIQDADLFVYNSEYMETWVPSAEKSMGQGHAVFVNASKGIDLMEGSEEEHEEHDHGEHEHSHAMDPHVWLSPVLAQKEVKNITAQIVKQDPDNKEYYEKNSKEYIAKLQDLDKLYRTTAKKAEKKEFITQHTAFGYLAKEYGLKQVPIAGLSPDQEPSAASLAKLKTYAKEHNVKVIYFEEIASSKVADTLASEIGAKTEVLNTLEGLSKEEQDKGLGYIDIMKQNLDALKDSLLVKSLEHHHHHH”, the “soluble on expression in E. coli” value was “soluble”.

For the sequence “MPKHCSHLIIIPDGKMAAIPFEALIEKRPKHDTSSYAQMGFMIKKYATSYTYTASLYENTHEAAKVKKVLLFAPVDFSASSDLNALPGTLAEVDTLTSLCTNTAQADVYTYTAASKAVLVSDSLSGYSIIHLATHGLVDEEQPELSCIYTSGTSEENDRIYAGDMYNMHLNAALVSLSACQTGLGKIEKGEGMIGLSRALFYAGADNIMVSLWKVSDLSTQVYMQYFYSIYLSENFTTFAEAARISKIKLLNSETFNSPYYWAAFILIGKLEHHHHHH”, the “soluble on expression in E. coli” value is on record as “not soluble”. As for “MGSDKIHHHHHHMLADLPIALNPHEPTSIPTQLTEQIRRLVARGILTPGDPLPSSRSLSTQLGVSRGSVVTAYDQLAGEGYLSTARGSGTTINPDLHLLKPVEIEKKETSRSVPPPLLNLSPGVPDTATLADSAWRAAWREACAKPPTHSPEQGLLRLRIEIADHLRQMRGLMVEPEQIIVTAGAREGLSLLLRTMDAPARIGVESPGYPSLRRIPQVLGHETIDVPTDESGLVPRALPHDLNALLVTPSHQYPYGGSLPADRRTALVAWAEANDALLIEDDFDSELRYVGMPLPPLRALAPDRTILLGTFSSVITPQVACGYLIAPTPQARVLATLRGILGQPVGAITQHALASYLASGALRRRTQRLRRLYRHRRSIVQDTLGDLPNTQLRPINGGLHAVLLCDKPQDLVVTTLASRGLNVTALSHYWGGTGADNGIVFGFGSHDEDTLRWVLAEISDAVSLG”, the entry is “not soluble”; as for “MRWEELSEQPCSLARVLAILGDRWTLLVLRDCFLGVRRFDDFERSLGVTRHVLADRLKRLVEAEILAKVPYQERPLREEYRLTEKGMELYPAILSLVNWGDRHLAGVEGPPLEHVHKHCGQHMHGVLVCSECGEPLHARDVTVREGLFWKGRLLRRG”, “not soluble”; as for “MTHNGGRHLLEAVTLCGSILTRYKRSNMKLDEAEVRALKELFEKYQDILVDGSPGLPTHASGPMIQPPVTNMVAPYDSPTDTIVKFVEGTINLQRPIVEVLHVMNEHLSLVLRAKNTHVFYVDPVNNLLYDPIHGVAAALDESSPIGKAIVSGERLNVAGTLYIPIISEGMPLGCVLSPCGRADYHASTMLESSLRVISTSLKNIIQAEKLNWNKEKAEAMLRMATQLARDNLEETVLASSIMNTVKSLTESARCSLFLVRGDVLEAHFEDGNVVTIPRGAGIAGYVAQTGETVNIVDAYADDRFNREVDKATGYRTKTILCMPVMYEGTIVAVAQLINKLDLTTESGLRLPRVFGKRDEELFQTFSMFAGASLRNCRINDRLLKEKKKSDVILDVVTVLSNTDIRDVDGIVRHALHGAKKLLNADRSTLFLVDKERNELCSRMADSVAGKEIRFPCGQGIAGTVAASGVGENIQDAYQDPRFNREVDKQLGYRTQTILCEPIILNGEILAVVQLVNKLDTSGEVTVFTEDDRETFRVFSLFAGISINNSHLLEFAVKAGREVMELNEHRATLFNKNVPSRAVKRVTAITKVEREAVLVCELPSFDVTDVEFDLFRARESTDKPLDVAAAIAYRLLLGSGLPQKFGCSDEVLLNFILQCRKKYRNVPYHNFYHVVDVCQTIYTFLYRGNVYEKLTELECFVLLITALVHDLDHMGLNNSFYLKTESPLGILSSASGNTSVLEVHHCNLAVEILSDPESDVFGGLEGAERTLAFRSMIDCVLATDMAKHGSALEAFLASAADQSSDEAAFHRMTMEIILKAGDISNVTKPFDISRQWAMAVTEEFYRQGDMEKERGVEVLPMFDRSKNMELAKGQIGFIDFVAAPFFQKIVDACLQGMQWTVDRIKSNRAQWERVLETRLSTSSGNNSSTR”, “soluble”.

As for “MYQVIKMYGDWEPWWFIDGWQDDIIDEQQFSDWQEALDYFNQEWQRMKAIFPSYHSQKNLLATFWEKEDKRWCEDCDEDLQQFHSLLLLKNKDIVPSNNYIPEFEQRNDSPQVAYLCKLNL”, the “soluble on expression in E. coli” value is “not soluble”.

For “MSLKWSAIPFQTLYRSIESGEFDFDLFKEVLPDLQNLNLNTDKLKNNASRSQLEKGEIELSDGSTFKVNQEFIFEAISLSDELNLDEIVACELILSGDTTANNGKVQYFLRRQYILQIVSFIVNCFHEDTELYQELIKNGALVSNILSAFKFIHTQLSEIKQQINKAQILENYNALFQQNIKFRRDFLLREYDILSQILYGLVDKGAIMKNKDFILSLLHHVSELDSNDFFIIYYTPAFFHLFASLRVLPDADVKLLHSQFMKDLKDDSIYTKPVKVALIFIFFAYFIGWCKEDPKRRADTMDFKTDVDEPMTSAVELGAIEQILIFAADTSIVEQDKSMELFYDIRSLLERHIPRLIPKQLLDDEKIFSQTTNSTYNPASATDNMSGRGLWNPSYPGMMSTTGTARLNSMPNNVNEYSYTTIVLSDQTQEFFLSSFDDVLQTIITDCAFLLTKIKDAEEDSLLSGEDLTLDDISLKADLERFFLSIYFFYASRPEYSCTFWSDKESNAYGFIEWCSRCNDNLMRSCFYLMVSSLSFGPENALNVYHYFGENSSISWKNIAQCLSDYTKKISNFNSSLHKRQQFSESTHNDIDSTAVALEEGLNEEAVIFLSSLLTLVGSVTYQVDEDVKSSLSKVFSDVLFEFTKINTPLVGAAFKVISNLVPKLESSRTKFWSFLDSLIFKDSSLNYSSESYRNAFTNVLTKYSDVLGFLQLFHNLISIHSREGHHHHHH”, the “soluble on expression in E. coli” value is “not soluble”. Consider “MGSDKIHHHHHHMSLSAEQIVEYRAFAEQLADAAAAAIAPYFRASLDVEDKGGRLYDPVTVADKAAEDAMRELIQARYPEHGILGEEAGIAVGSSPLTWVLDPIDGTRAFITGLPLWGTLIALNDGARPVLGVMNQPFTGERFVGTPAGAWRSGTPLKTRACADLSAATLMCTTPDMFDTAERKAAFEAVAGKARLMRYGGDCYAYCMLASGFVDVIVEASLQPYDVQALMPIIEGAGGVITAWDGSSAQDGGCVVACGDPVLHAQVLEMLRHAM”, for which the “soluble on expression in E. coli” value is listed as “not soluble”. Regarding “MSLNVDVLLKNVWLYQTVTQTFVQRNVAIKNDKFYYIYEEENVNLQPQKTINAENQWMIPGLIDAHMHIESSMTTPTIFSKAVVRYGVTTVIADAHEMANVFGLEGLKAFMAAETELDIFHAIPSSVPSTTPELETTGGIIGLAEVAELLKEPKVICLGEAMNFKGISYEPDSLIRQIIDLCQKQRPTMPLEGHCPKIEDQELADFLYSGITSDHTHQFPKTLKEKIEAGVFIQFQNKSITPENIQVIVDNDFYNYASIITDDVMADDLLKGHLNENVKKAVHAGLPIEKAIYMATYTPAKRMGLHDRGEIAPGKKADFLLLNDLESFDINTVYKSGKVVFEKGEPFHYPEKIEEFPATYQQTIQCKKLTEEDLLLKVATTKETVRCNVIQKQEIGTFTERITKEIPVENGLLQWQKANCALLIVMERYGKNGNISFSLMDQPLSEKGAIATTWAHDHHNLMVMGNTIEDILLAQNELLAMQGGYLVASDQQVMATCPLPIGGILSQAPIEQLGASLQKVRQAMQALGYQNMNEIMSFSTLSLPVSPAIKVTDFGMMDTKSQRFYPLVFPEDGVLLHENTHEGHHHHHH”, the “soluble on expression in E. coli” value was “soluble”. Take “MSKLYLMSLGCNKNLVDSEIMLGHLSAYELCDEPSKADVLIVNTCGFIDSAKKESINAILDLHEQRKKDSLLVVTGCLMQRYREELMKELPEVDLFTGVGDYERIDEMILKKTNLFSNSTYLQSENSKRIITGSNSHAFIKIAEGCNQKCSFCAIPSFKGKLKSREISSIIAELKDLVARGYKDFSFIAQDTSSYLFDKGEKDGLIRLIDEVEKIKGIRAARILYLYPTSASEALIKRIIASEIFINYFDMPLQHISDNMLKIMKRGANSTRLKEMLNLMKSAPNSFLRTGFIVGHPGESEADFEELCEFVKDFGFDRISVFAYSKEEDTAAFDMEQVPFKVINKRLKIIEKIVDEVIEKSFEKEVGQKRLVVCTGKSSEGEFFIAAKDLRWDREIDGEILINESECGNLEMGQIYECEILQNLDKKLLAKALRKVDANLEHHHHHH”: the “soluble on expression in E. coli” value is given as “soluble”. With “MDCQIGSRRCATWDEIEDAPQTKRLREDKVQENVPQQSVQPAPPPPAAQQAPAPAEQPKFYISAPIQGFTVNNQGGCRYLFF” the entry was “not soluble”; with “MGSDKIHHHHHHMKKLRKIIEINEELCNGCGQCISACAESALALVNGKARVVSDNLCDGLGTCIGECPTGALKIVEREAEEFDAQAVEIARSCPSTRMVMTFTAGTPSSEARPSALSHWPVKIRLIPENAPFLKGADLLVVADCVPVAFSDLHGRFLPGKVVMAGCPKFDEAQPYIEKFAGIFHNAGIRRVTVLTMEVPCCSGLPILVRKGMELAGVRVPMEVAVISTRGEILDKTA”, “not soluble”. “MTAGLHHAAANGVRVRPFRRHPTKRYILTGAPGAGKTVLLRALETAGEVVVEEAATDVIALAQAQGVDQPWTDPGFIDTIVGLQRQRQTRAVGDRIFFDRSPVCALALARFLGHPVSALLEDELARIVREGVYQRRVFLVQGLGFITPTAARRISLDDAQAFEEVHQAAYTELGFELAPIAPGPVGDRVRRVLGAVLEHHHHHH”: the “soluble on expression in E. coli” value is listed as “not soluble”.
